The test deals with Toll-like Receptor 5 (UniProt O60602). As to the kind of experiment: cell-based or functional assay.

B1: STF2.EIII+ (protein)
chain: MAQVINTNSLSLLTQNNLNKSQSALGTAIERLSSGLRINSAKDDAAGQAIANRFTANIKGLTQASRNANDGISIAQTTEGALNEINNNLQRVRELAVQSANSTNSQSDLDSIQAEITQRLNEIDRVSGQTQFNGVKVLAQDNTLTIQVGANDGETIDIDLKQINSQTLGLDSLNVQKAYDVKDTAVTTKAYANNGTTLDVSGLDDAAIKAATGGTNGTASVTGGAVKFDADNNKYFVTIGGFTGADAAKNGDYEVNVATDGTVTLAAGATKTTMPAGATTKTEVQELKDTPAVVSADAKNALIAGGVDATDANGAELVKMSYTDKNGKTIEGGYALKAGDKYYAADYDEATGAIKAKTTSYTAADGTTKTAANQLGGVDGKTEVVTIDGKTYNASKAAGHDFKAQPELAEAAAKTTENPLQKIDAALAQVDALRSDLGAVQNRFNSAITNLGNTVNNLSEARSRIEDSDYATEVSNMSRAQILQQAGTSVLAQANQVPQNVLSLLRKGNSKLEGQLEFPRTSMEKLQLKGTTYGVCSKAFKFLGTPADTGHGTVVLELQYTGTDGPCKVPISSVASLNDLTPVGRLVTVNPFVSVATANAKVLIELEPPFGDSYIVVGRGEQQINHHWHKSGSSIGK
As to B1, the TLR-5 EC50 (batch 052); IL-8 secretion by HEK293 cells was > 5000 ng/mL, the TLR-5 EC50 (batch 054); IL-8 secretion by HEK293 cells came to 1200 ng/mL and the TLR-5 EC50 (batch 057); IL-8 secretion by HEK293 cells was found to be 198 ng/mL.

B2: STF2.HA1-3(PR8), produced in E. coli (protein)
chain: MAQVINTNSLSLLTQNNLNKSQSALGTAIERLSSGLRINSAKDDAAGQAIANRFTANIKGLTQASRNANDGISIAQTTEGALNEINNNLQRVRELAVQSANSTNSQSDLDSIQAEITQRLNEIDRVSGQTQFNGVKVLAQDNTLTIQVGANDGETIDIDLKQINSQTLGLDSLNVQKAYDVKDTAVTTKAYANNGTTLDVSGLDDAAIKAATGGTNGTASVTGGAVKFDADNNKYFVTIGGFTGADAAKNGDYEVNVATDGTVTLAAGATKTTMPAGATTKTEVQELKDTPAVVSADAKNALIAGGVDATDANGAELVKMSYTDKNGKTIEGGYALKAGDKYYAADYDEATGAIKAKTTSYTAADGTTKTAANQLGGVDGKTEVVTIDGKTYNASKAAGHDFKAQPELAEAAAKTTENPLQKIDAALAQVDALRSDLGAVQNRFNSAITNLGNTVNNLSEARSRIEDSDYATEVSNMSRAQILQQAGTSVLAQANQVPQNVLSLLANSENGICYPGDFIDYEELREQLSSVSSFERFEIFPKESSWPNHNTNGVTAACSHEGKSSFYRNLLWLTEKEGSYPKLKNSYVNKKGKEVLVLWGIHHPPNSKEQQNLYQNENAYVSVVTSNYNRRFTPEIAERPKVRDQAGRMNYYWTLLKPGDTIIFEANGNLIAPMYAFALSRG
In turn, B2 showed a TLR5 activity (EC50, ng/ml); IL-8 secretion by HEK293 cells of 1.2 ng/mL.

B3: STF2.HA1-2(PR8), produced in E. coli (protein)
chain: MAQVINTNSLSLLTQNNLNKSQSALGTAIERLSSGLRINSAKDDAAGQAIANRFTANIKGLTQASRNANDGISIAQTTEGALNEINNNLQRVRELAVQSANSTNSQSDLDSIQAEITQRLNEIDRVSGQTQFNGVKVLAQDNTLTIQVGANDGETIDIDLKQINSQTLGLDSLNVQKAYDVKDTAVTTKAYANNGTTLDVSGLDDAAIKAATGGTNGTASVTGGAVKFDADNNKYFVTIGGFTGADAAKNGDYEVNVATDGTVTLAAGATKTTMPAGATTKTEVQELKDTPAVVSADAKNALIAGGVDATDANGAELVKMSYTDKNGKTIEGGYALKAGDKYYAADYDEATGAIKAKTTSYTAADGTTKTAANQLGGVDGKTEVVTIDGKTYNASKAAGHDFKAQPELAEAAAKTTENPLQKIDAALAQVDALRSDLGAVQNRFNSAITNLGNTVNNLSEARSRIEDSDYATEVSNMSRAQILQQAGTSVLAQANQVPQNVLSLLAKGIAPLQLGKCNIAGWLLGNPECDPLLPVRSWSYIVETPNSENGICYPGDFIDYEELREQLSSVSSFERFEIFPKESSWPNHNTNGVTAACSHEGKSSFYRNLLWLTEKEGSYPKLKNSYVNKKGKEVLVLWGIHHPPNSKEQQNLYQNENAYVSVVTSNYNRRFTPEIAERPKVRDQAGRMNYYWTLLKPGDTIIFEANGNLIAPMYAFALSRGFGSGIITS
Molecule B3 returned a TLR5 activity (EC50, ng/ml); IL-8 secretion by HEK293 cells of 0.15 ng/mL.

B4: STF2.HA1-2(PR8)mut (protein)
chain: MAQVINTNSLSLLTQNNLNKSQSALGTAIERLSSGLRINSAKDDAAGQAIANRFTANIKGLTQASRNANDGISIAQTTEGALNEINNNLQRVRELAVQSANSTNSQSDLDSIQAEITQRLNEIDRVSGQTQFNGVKVLAQDNTLTIQVGANDGETIDIDLKQINSQTLGLDSLNVQKAYDVKDTAVTTKAYANNGTTLDVSGLDDAAIKAATGGTNGTASVTGGAVKFDADNNKYFVTIGGFTGADAAKNGDYEVNVATDGTVTLAAGATKTTMPAGATTKTEVQELKDTPAVVSADAKNALIAGGVDATDANGAELVKMSYTDKNGKTIEGGYALKAGDKYYAADYDEATGAIKAKTTSYTAADGTTKTAANQLGGVDGKTEVVTIDGKTYNASKAAGHDFKAQPELAEAAAKTTENPLQKIDAALAQVDALRSDLGAVQNRFNSAITNLGNTVNNLSEARSRIEDSDYATEVSNMSRAQILQQAGTSVLAQANQVPQNVLSLLAKGAAPLQLGKCNIAGWLLGNPECDPLLPVRSWSDIAETPNSENGICYPGDFIDYEELREQLSSVSSFERFEIFPKESSWPNHNTNGVTAACSHEGKSSFYRNLLWLTEKEGSYPKLKNSYVNKKGKEVLVLWGIHHPPNSKEQQNLYQNENAYVSVVTSNYNRRFTPEIAERPKVRDQAGRMNYYWTLLKPGDTIIFEANGNLIAPMYAFALSRGFGSGIITS
Molecule B4 showed a TLR5 activity (EC50, ng/ml); IL-8 secretion by HEK293 cells of 1.2 ng/mL.

B5: STF2.HA1-1His(PR8), produced in Baculovirus (protein)
chain: AQVINTNSLSLLTQNNLNKSQSALGTAIERLSSGLRINSAKDDAAGQAIANRFTANIKGLTQASRNANDGISIAQTTEGALNEINNNLQRVRELAVQSANSTNSQSDLDSIQAEITQRLNEIDRVSGQTQFNGVKVLAQDNTLTIQVGANDGETIDIDLKQINSQTLGLDSLNVQKAYDVKDTAVTTKAYANNGTTLDVSGLDDAAIKAATGGTNGTASVTGGAVKFDADNNKYFVTIGGFTGADAAKNGDYEVNVATDGTVTLAAGATKTTMPAGATTKTEVQELKDTPAVVSADAKNALIAGGVDATDANGAELVKMSYTDKNGKTIEGGYALKAGDKYYAADYDEATGAIKAKTTSYTAADGTTKTAANQLGGVDGKTEVVTIDGKTYNASKAAGHDFKAQPELAEAAAKTTENPLQKIDAALAQVDALRSDLGAVQNRFNSAITNLGNTVNNLSEARSRIEDSDYATEVSNMSRAQILQQAGTSVLAQANQVPQNVLSLLASGSGSGSSHNGKLCRLKGIAPLQLGKCNIAGWLLGNPECDPLLPVRSWSYIVETPNSENGICYPGDFIDYEELREQLSSVSSFERFEIFPKESSWPNHNTNGVTAACSHEGKSSFYRNLLWLTEKEGSYPKLKNSYVNKKGKEVLVLWGIHHPPNSKEQQNLYQNENAYVSVVTSNYNRRFTPEIAERPKVRDQAGRMNYYWTLLKPGDTIIFEANGNLIAPMYAFALSRGFGSGIITSNASMHECNTKCQTPLGAINSSLPYQNIHPVTIGECPKYVRHHHHHH
Take B5: the TLR activity (EC50, ng/ml); IL-8 secretion by HEK293 cells turned out to be 3 ng/mL.

B6: ngSTF2.HA1-2mutHis(PR8) (protein)
chain: AQVINTNSLSLLTQNNLQKSQSALGTAIERLSSGLRINSAKDDAAGQAIANRFTANIKGLTQASRNANDGISIAQTTEGALNEINNNLQRVRELAVQSAQSTNSQSDLDSIQAEITQRLNEIDRVSGQTQFNGVKVLAQDNTLTIQVGANDGETIDIDLKQINSQTLGLDSLNVQKAYDVKDTAVTTKAYANQGTTLDVSGLDDAAIKAATGGTQGTASVTGGAVKFDADNNKYFVTIGGFTGADAAKNGDYEVNVATDGTVTLAAGATKTTMPAGATTKTEVQELKDTPAVVSADAKNALIAGGVDATDANGAELVKMSYTDKNGKTIEGGYALKAGDKYYAADYDEATGAIKAKTTSYTAADGTTKTAANQLGGVDGKTEVVTIDGKTYQASKAAGHDFKAQPELAEAAAKTTENPLQKIDAALAQVDALRSDLGAVQNRFNSAITNLGNTVNQLSEARSRIEDSDYATEVSQMSRAQILQQAGTSVLAQANQVPQNVLSLLASGSGSGSKGAAPQLGKCNIAGWLLGNPECDPLLPVRSWSDIAETPNSENGICYPGDFIDYEELREQLSSVSSFERFEIFPKESSWPNHNTNGVTAACSHEGKSSFYRNLLWLTEKEGSYPKLKNSYVNKKGKEVLVLWGIHHPPNSKEQQNLYQNENAYVSVVTSNYNRRFTPEIAERPKVRDQAGRMNYYWTLLKPGDTIIFEANGNLIAPMYAFALSRGFGSGIITSHHHHHH
B6 displayed a TLR activity (EC50, ng/ml); IL-8 secretion by HEK293 cells of 9 ng/mL.

These data come from patent publication US20070224205A1.
